From paper PMC9482650, “Quantitative fragmentomics allow affinity mapping of interactomes” (Nature Communications, 2022)

T1: CARD11, Q9BXL7
T1 sequence (Q9BXL7 662-765, limits assumed, looked up): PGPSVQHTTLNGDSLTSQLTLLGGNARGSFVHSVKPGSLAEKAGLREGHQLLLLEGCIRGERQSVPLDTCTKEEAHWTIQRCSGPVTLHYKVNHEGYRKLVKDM

T2: DLG3_2, Q92796
T2 sequence (Q92796 221-321, limits assumed, looked up): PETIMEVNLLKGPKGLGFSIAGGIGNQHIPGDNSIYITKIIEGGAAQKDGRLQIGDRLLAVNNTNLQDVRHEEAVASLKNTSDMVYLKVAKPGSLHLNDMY


Experiments:
Experiment in all cases: holdup assay
Parameters in all cases: key: below the threshold = too weak to quantify, mostly under pKd 3.1 to 4
CARD11, Q9BXL7 = molecular target: T1, CARD11, Q9BXL7
DLG3_2, Q92796 = molecular target: T2, DLG3_2, Q92796
LNX1_2, Q8TBB1 = molecular target: LNX1_2, Q8TBB1
[1] = plain residues with an end cap or a label only (N-terminal biotin on a linker: ado-ado)
[2] = modified: phospho on T at position -2 from the C-terminal residue

Sequence of LNX1_2, Q8TBB1 (Q8TBB1 371-470): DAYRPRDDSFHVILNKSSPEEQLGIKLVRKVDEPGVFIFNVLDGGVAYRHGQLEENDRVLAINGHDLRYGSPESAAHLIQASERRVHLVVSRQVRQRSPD

Binder	pKd (CARD11, Q9BXL7; [1])	pKd (DLG3_2, Q92796; [1])	pKd (LNX1_2, Q8TBB1; [1])	pKd (CARD11, Q9BXL7; [2])	pKd (DLG3_2, Q92796; [2])	pKd (LNX1_2, Q8TBB1; [2])
TKEIPNCTSV [SORCS3, Q9UPU3]	below the threshold	4.22	3.78			
VISSDDLTEL [CAPN6, Q9Y6Q1]	below the threshold	3.99	below the threshold			
WAKEKQHTRL [SLC17A1, Q14916]	below the threshold	below the threshold	below the threshold			
PALKNGQYWV [CSPG4, Q6UVK1]	below the threshold	below the threshold	4.27			
FHSIKQSTAV [CRHR1, P34998]	below the threshold	4.61	below the threshold			
NKSEPFLTWL [WWTR1, Q9GZV5]	below the threshold	below the threshold	below the threshold			
QLGSPTADLA [SIPA1, Q96FS4]	below the threshold	4.06	below the threshold			
GQNMTVSVVI [PRLHR, P49683]	below the threshold	4.31	3.54			
ATKDKKITTV [EXOC4, Q96A65]	below the threshold	5.28	4.1			
AKADAQESRL [PLCB2, Q00722]	below the threshold	below the threshold	below the threshold			
QLKSGRDSTV [TMEM178A, Q8NBL3]	below the threshold	4.35	3.84			
PEKVSNTTVV [IGSF5, Q9NSI5]	below the threshold	4.73	3.73			
DLLGGGSDSI [TNRC6B, Q9UPQ9]	below the threshold	3.99	below the threshold			
SRSRRRETAL [HPV33-E6_-2P, P06427]				below the threshold	below the threshold	below the threshold
SAGADSETHC [SLCO1B1, Q9Y6L6]	below the threshold	below the threshold	below the threshold			
YAEKRMLTEV [KCNA6, P17658]	below the threshold	4.6	3.51			
SRPHTNETSL [MCC, P23508]	below the threshold	3.72	below the threshold			

Binder	pKd (CARD11, Q9BXL7; [1])	pKd (DLG3_2, Q92796; [1])	pKd (LNX1_2, Q8TBB1; [1])	pKd (CARD11, Q9BXL7; [2])	pKd (DLG3_2, Q92796; [2])	pKd (LNX1_2, Q8TBB1; [2])
FLVTEFNVML [DFNB31, Q9P202]	below the threshold	below the threshold	below the threshold			
EAVTVESTSL [SLC22A11, Q9NSA0]	below the threshold	below the threshold	below the threshold			
GDSSRKEYFI [GYPC, P04921]	below the threshold	4.19	below the threshold			
NSTHNLKDYV [CLDN20, P56880]	below the threshold	below the threshold	below the threshold			
KSRPENGTVC [TMEM178B, H3BS89]	below the threshold	3.54	4.05			
PSVYSRSQYV [CLDN8, P56748]	below the threshold	3.74	3.7			
GSQSQVETEA [FKBP4, Q02790]	below the threshold	4.2	below the threshold			
THHRKIHTRV [ZNF599, Q96NL3]	below the threshold	5.26	3.5			
AHGSTRDQSI [KCNB1, Q14721]	below the threshold	4.21	below the threshold			
RGKNRRQSIF [CDK18, Q07002]	below the threshold	4.19	below the threshold			
VKQYADVEGF [HNRNPK, P61978;P61978-2]	below the threshold	4.09	below the threshold			
QQGLLPHSSC [TYRO3, Q06418]	below the threshold	below the threshold	below the threshold			
TNSKQGETTV [FZD1, Q9UP38]	below the threshold	4.64	3.68			
GVHSNDHSVV [LPAR1, Q92633]	below the threshold	4.42	below the threshold			
TFSRRPKTRV [CD226, Q15762]	below the threshold	below the threshold	below the threshold			
DYSNLRETDI [ADRA1D, P25100]	below the threshold	4.39	below the threshold			
IQISELETNV [SLC1A7, O00341]	below the threshold	4.66	below the threshold			
